Data from paper PMC2518108.

What was measured:
human IGF-II (human) = assay: SPR; BIAcore T100, CM5 chip; human IGF-I (120 RU) or IGF-II (138 RU) amine-coupled; IGFBP-1s injected 60 s, 5 min dissociation; 25 C, HBS (10 mM HEPES, 150 mM NaCl, 3 uM EDTA, 0.05% TWEEN-20, pH 7.4), 30 uL/min; 1:1 model fitted globally, KD = kd/ka
human IGF-I (human) = human IGF-I (human) (UniProt P05019); assay: as above
human IGF-I (human), sequence (P05019 49-118): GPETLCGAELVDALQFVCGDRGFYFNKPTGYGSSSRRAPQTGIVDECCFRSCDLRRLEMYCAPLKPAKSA

human IGFBP-1, sequence (P08833 26-259): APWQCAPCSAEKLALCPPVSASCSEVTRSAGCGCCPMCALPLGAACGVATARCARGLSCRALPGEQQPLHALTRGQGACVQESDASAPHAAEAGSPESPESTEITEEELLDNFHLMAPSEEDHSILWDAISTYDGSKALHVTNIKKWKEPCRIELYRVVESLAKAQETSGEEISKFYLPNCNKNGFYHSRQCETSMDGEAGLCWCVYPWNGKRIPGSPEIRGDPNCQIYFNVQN

Kd (human IGF-II (human))	koff (human IGF-II (human))	kon (human IGF-II (human))	Kd (human IGF-I (human))	koff (human IGF-I (human))	kon (human IGF-I (human))	Substance
9.33 nM	0.00926 s⁻¹	993000 M⁻¹ s⁻¹				zebrafish IGFBP-1b (from UniProt A4K8J2 1-244) (natural protein)
8.63 nM	0.000457 s⁻¹	53000 M⁻¹ s⁻¹				human IGFBP-1 (from UniProt P08833 26-259) (natural protein)
0.34 nM	0.00029 s⁻¹	867000 M⁻¹ s⁻¹	0.28 nM	0.000332 s⁻¹	1.18e+06 M⁻¹ s⁻¹	zebrafish IGFBP-1a (natural protein)
